Measurements from publication PMC3839629.

How the values were obtained:
[1] = molecular target: DGK_(Cysless), cysless His6-tagged diacylglycerol kinase from Escherichia coli (Escherichia coli); experiment: anion exchange chromatography of subunit exchange
[2] = molecular target: E5-DGK_(Cysless), cysless His6-tagged diacylglycerol kinase with a pentaglutamate tag (Escherichia coli); experiment: anion exchange chromatography of subunit exchange

half-life of subunit exchange [1] [weeks] | percent of the expected final subunit exchange after 7 days [1] [%] | ratio of the mixed peaks to the pure peaks after 7 days [1] | half-life of subunit exchange [2] [weeks] | Substance
> 5 | – | – | – | DGK_(Cysless), cysless His6-tagged diacylglycerol kinase from Escherichia coli (enzyme)
– | 10 | 0.3 | > 5 | E5-DGK_(Cysless), cysless His6-tagged diacylglycerol kinase with a pentaglutamate tag (enzyme)
